Measurements taken from patent US20240366726A1 (Genentech, published 2024).
Where a chain is given by its changes, count along the chain named.

T1: mouse FcRn (mouse, UniProt Q61559 22-297; P01887 21-119)
T1 construct: also called neonatal Fc receptor
T1 sequence (looked up): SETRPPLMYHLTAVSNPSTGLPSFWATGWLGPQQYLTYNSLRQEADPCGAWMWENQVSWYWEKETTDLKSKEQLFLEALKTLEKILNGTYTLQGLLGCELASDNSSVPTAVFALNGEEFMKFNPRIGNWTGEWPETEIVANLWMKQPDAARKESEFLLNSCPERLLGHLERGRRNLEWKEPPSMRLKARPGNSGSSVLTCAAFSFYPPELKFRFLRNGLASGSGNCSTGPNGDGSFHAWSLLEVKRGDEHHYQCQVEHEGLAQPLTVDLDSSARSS
T1 sequence (b2m, looked up): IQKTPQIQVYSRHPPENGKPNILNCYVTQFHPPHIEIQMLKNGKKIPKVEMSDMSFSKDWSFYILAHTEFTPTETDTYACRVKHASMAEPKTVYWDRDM

T2: cynomolgus monkey CD122/CD132 on lymphocytes (NK cells and CD8+ T cells in cynomolgus monkey PBMCs) (cynomolgus monkey, UniProt Q38J85 27-551; A0A2K5VGJ6 23-369)
T2 sequence (looked up) 1: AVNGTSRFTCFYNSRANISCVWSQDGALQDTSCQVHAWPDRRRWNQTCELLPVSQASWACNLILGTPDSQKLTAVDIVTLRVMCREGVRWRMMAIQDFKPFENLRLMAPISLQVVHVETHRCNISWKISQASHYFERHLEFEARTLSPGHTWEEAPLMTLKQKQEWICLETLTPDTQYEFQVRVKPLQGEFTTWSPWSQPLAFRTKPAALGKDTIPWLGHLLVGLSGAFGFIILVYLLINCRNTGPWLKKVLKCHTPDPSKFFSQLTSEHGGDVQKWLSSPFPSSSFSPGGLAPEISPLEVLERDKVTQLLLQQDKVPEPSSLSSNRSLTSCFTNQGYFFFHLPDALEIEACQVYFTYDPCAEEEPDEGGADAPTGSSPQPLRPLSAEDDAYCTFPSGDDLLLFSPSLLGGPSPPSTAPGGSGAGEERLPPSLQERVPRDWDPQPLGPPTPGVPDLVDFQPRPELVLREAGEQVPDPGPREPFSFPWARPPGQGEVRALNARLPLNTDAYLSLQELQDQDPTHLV
T2 sequence (looked up) 2: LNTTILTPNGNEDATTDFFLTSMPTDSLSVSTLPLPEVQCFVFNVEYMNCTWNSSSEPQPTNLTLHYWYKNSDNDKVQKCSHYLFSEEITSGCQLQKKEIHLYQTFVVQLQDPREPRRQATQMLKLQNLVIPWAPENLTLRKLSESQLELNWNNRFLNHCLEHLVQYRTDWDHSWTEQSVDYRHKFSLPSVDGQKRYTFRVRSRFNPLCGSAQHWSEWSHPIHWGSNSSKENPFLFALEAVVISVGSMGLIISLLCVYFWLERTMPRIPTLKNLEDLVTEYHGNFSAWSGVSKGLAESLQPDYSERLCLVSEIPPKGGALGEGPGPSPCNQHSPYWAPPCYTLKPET

T3: human CD122/CD132 on lymphocytes (NK cells and CD8+ T cells in human PBMCs) (human, UniProt P31785 23-369)
T3 sequence 1: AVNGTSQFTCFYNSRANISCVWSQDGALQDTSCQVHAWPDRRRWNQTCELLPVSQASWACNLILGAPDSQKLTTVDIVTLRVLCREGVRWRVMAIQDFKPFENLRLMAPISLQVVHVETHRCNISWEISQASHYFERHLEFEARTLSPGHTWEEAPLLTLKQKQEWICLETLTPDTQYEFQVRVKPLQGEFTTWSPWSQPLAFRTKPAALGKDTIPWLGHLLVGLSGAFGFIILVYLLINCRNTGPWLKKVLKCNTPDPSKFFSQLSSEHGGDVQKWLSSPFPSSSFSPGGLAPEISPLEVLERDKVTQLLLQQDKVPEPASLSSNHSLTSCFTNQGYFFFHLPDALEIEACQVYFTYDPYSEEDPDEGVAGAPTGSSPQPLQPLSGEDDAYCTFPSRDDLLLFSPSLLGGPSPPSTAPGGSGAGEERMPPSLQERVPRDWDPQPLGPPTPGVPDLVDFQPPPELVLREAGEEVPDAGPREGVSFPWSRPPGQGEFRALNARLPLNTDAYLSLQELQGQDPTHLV
T3 sequence 2: T2 sequence (looked up) 2 with A14T, T16A, S22T, R141H, S228T, P326A

B1: XENP24306 (Fc fusion)
chain 1: NWVNVISDLKKIEDLIQSMHIDATLYTESNVHPSCKVTAMKCFLLELQVISLESGDASIHDTVQDLIILANNSLSSNGNVTESGCKECEELEEKNIKEFLQSFVHIVQMFINTSGGGGSEPKSSDKTHTCPPCPAPPVAGPSVFLFPPKPKDTLMISRTPEVTCVVVDVKHEDPEVKFNWYVDGVEVHNAKTKPREEEYNSTYRVVSVLTVLHQDWLNGKEYKCKVSNKALPAPIEKTISKAKGQPREPQVYTLPPSREEMTKNQVSLTCDVSGFYPSDIAVEWESDGQPENNYKTTPPVLDSDGSFFLYSKLTVDKSRWEQGDVFSCSVLHEALHSHYTQKSLSLSPGK
chain 2: ITCPPPMSVEHADIWVKSYSLYSRERYICNSGFKRKAGTSSLTECVLNKATNVAHWTTPSLKCIRGGGGSEPKSSDKTHTCPPCPAPPVAGPSVFLFPPKPKDTLMISRTPEVTCVVVDVKHEDPEVKFNWYVDGVEVHNAKTKPREEQYNSTYRVVSVLTVLHQDWLNGKEYKCKVSNKALPAPIEKTISKAKGQPREPQVYTLPPSREQMTKNQVKLTCLVKGFYPSDIAVEWESNGQPENNYKTTPPVLDSDGSFFLYSKLTVDKSRWQQGNVFSCSVLHEALHSHYTQKSLSLSPGK
notes: Never tested alone: every experiment used a combination of XENP24306 (~82%) and XENP32803 (~18%); Each result of the combination is written once for each of the two proteins; also called IL15/IL15Rα heterodimeric protein; XENP24306+XENP32803 (about 82% of the tested combination); copies: 1 + 1
B2: XENP32803 (Fc fusion)
chain 1: B1 chain 1
chain 2: B1 chain 2 with K100T
notes: Never tested alone: every experiment used a combination of XENP24306 (~82%) and XENP32803 (~18%); Each result of the combination is written once for each of the two proteins; also called IL15/IL15Rα heterodimeric protein; XENP24306+XENP32803 (about 18% of the tested combination); copies: 1 + 1

Assays:
[1] = biological target: T1, mouse FcRn; experiment: Bio-Layer Interferometry, pH 6.0; tested as ~82%/~18% mixture
[2] = biological target: T4, human FcRn (human, UniProt P55899 24-297; P61769 21-119); experiment: as above
T4 construct: also called neonatal Fc receptor

[3] = biological target: T5, cynomolgus monkey FcRn (cynomolgus monkey, UniProt Q8SPV9 24-297; Q8SPW0 21-119); experiment: as above
T5 construct: also called neonatal Fc receptor

[4] = biological target: T2, cynomolgus monkey CD122/CD132 on …; experiment: cell-based or functional assay
[5] = biological target: T3, human CD122/CD132 on lymphocytes (NK …); experiment: cell-based or functional assay
[6] = biological target: human complement component 1q (C1q) (human, UniProt P02745 23-245; P02746 28-253; P02747 29-245); experiment: BLI; tested as XENP24306+XENP32803
human complement component 1q (C1q), sequence (P02745 23-245 limits assumed, chain 1 of 3): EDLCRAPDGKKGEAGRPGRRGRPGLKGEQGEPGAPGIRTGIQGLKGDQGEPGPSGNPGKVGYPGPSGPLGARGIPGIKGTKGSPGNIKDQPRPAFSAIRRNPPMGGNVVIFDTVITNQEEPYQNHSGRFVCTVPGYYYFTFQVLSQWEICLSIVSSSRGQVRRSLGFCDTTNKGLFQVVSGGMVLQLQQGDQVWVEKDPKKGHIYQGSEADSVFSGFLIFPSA
human complement component 1q (C1q), sequence (P02746 28-253 limits assumed, chain 2 of 3): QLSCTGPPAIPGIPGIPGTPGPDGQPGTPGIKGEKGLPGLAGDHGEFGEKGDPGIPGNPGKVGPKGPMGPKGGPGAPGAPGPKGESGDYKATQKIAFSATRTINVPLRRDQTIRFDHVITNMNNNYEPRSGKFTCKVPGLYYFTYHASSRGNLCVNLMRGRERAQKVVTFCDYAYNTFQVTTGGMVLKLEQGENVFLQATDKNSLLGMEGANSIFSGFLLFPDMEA
human complement component 1q (C1q), sequence (P02747 29-245 limits assumed, chain 3 of 3): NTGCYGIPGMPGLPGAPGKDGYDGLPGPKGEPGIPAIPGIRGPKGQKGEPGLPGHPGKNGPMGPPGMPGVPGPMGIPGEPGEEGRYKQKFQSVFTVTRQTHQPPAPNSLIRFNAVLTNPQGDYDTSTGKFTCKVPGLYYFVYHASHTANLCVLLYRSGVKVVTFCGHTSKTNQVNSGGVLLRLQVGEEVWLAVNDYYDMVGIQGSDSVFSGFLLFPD

T5 sequence (Q8SPV9 24-297 limits assumed, chain 1 of 2): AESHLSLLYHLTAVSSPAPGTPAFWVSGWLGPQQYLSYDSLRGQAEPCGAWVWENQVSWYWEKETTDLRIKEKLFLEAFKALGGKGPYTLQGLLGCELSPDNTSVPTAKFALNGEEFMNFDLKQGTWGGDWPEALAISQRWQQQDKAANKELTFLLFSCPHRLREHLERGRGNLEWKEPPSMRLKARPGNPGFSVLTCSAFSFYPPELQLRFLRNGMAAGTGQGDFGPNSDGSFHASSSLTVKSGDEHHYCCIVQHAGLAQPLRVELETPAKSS
T5 sequence (Q8SPW0 21-119 limits assumed, chain 2 of 2): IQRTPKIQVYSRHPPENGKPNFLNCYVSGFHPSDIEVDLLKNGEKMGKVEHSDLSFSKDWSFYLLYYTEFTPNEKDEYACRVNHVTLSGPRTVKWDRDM
T4 sequence (P55899 24-297 limits assumed, chain 1 of 2): as the sequence (Q8SPV9 24-297 limits assumed, chain 1 of 2) above, with D39N, Q44E, S99G, G189S, N190S, M217L, T269S counted along it
T4 sequence (P61769 21-119 limits assumed, chain 2 of 2): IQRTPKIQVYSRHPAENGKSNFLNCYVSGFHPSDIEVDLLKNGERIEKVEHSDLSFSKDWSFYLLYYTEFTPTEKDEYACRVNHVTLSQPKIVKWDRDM

Binder | binding result [1] | binding result [2] | binding result [3] | EC50 of CD8+ T cell proliferation in cynomolgus monkey PBMCs [4] [µg/mL] | EC50 of NK-cell proliferation in cynomolgus monkey PBMCs [4] [µg/mL] | EC50 of human CD8+ T cell proliferation (Ki67+) in human PBMCs [5] [µg/mL] | EC50 of human NK-cell proliferation (Ki67+) in human PBMCs [5] [µg/mL] | potency on human CD8+ terminal effector T cells (Ki67 proliferation), fold lower than recombinant wild-type IL-15 [5] [fold] | potency on human CD8+ terminal effector T cells (Ki67 proliferation), fold lower than wild-type IL-15/wild-type IL-15Rα heterodimer Fc fusion XENP22853 [5] [fold] | binding result [6]
B1 | binds | binds | binds | 3.8 | 0.5 | 12.7 | 1.2 | ~900 | ~400 | no binding
B2 | binds | binds | binds | 3.8 | 0.5 | 12.7 | 1.2 | ~900 | ~400 | no binding
